Source: the supplement of paper PMC11908140

B1: library; numbered along this chain (parent)
chain: MRKPRAAVGSGHRKQAASQEGRQKHAKNNSQAKPSACDGLARQPEEVVLQASVSSYHLFRDVAEVTAFRGSLLSWYDQEKRDLPWRRRAEDEMDLDRRAYAVWVSEVMLQQTQVATVINYYTGWMQKWPTLQDLASASLEEVNQLWAGLGYYSRGRRLQEGARKVVEELGGHMPRTAETLQQLLPGVGRYTAGAIASIAFGQATGVVDGNVARVLCRVRAIGADPSSTLVSQQLWGLAQQLVDPARPGDFNQAAMELGATVCTPQRPLCSQCPVESLCRARQRVEQEQLLASGSLSGSPDVEECAPNTGQCHLCLPPSEPWDQTLGVVNFPRKASRKPPREESSATCVLEQPGALGAQILLVQRPNSGLLAGLWEFPSVTWEPSEQLQRKALLQELQRWAGPLPATHLRHLGEVVHTFSHIKLTYQVYGLALEGQTPVTTVPPGARWLTQEEFHTAAVSTAMKKVFRVYQGQQPGTCMGSKRSQVSSPCSRKKPRMGQQVLDNFFRSHISTDAHSLNSAAQ

Variants of: B1
Assay: 8OG:A repair function score (normalized; synonymous = 0, nonsense = -1) (normalized log-likelihood score); higher = more repair activity (WT-like)
Conditions: with 8OG:A DNA repair reporter (GFP) in HEK-293 MUTYH KO cells
In short: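 GFP+ (repair) and GFP− bins of viable mCherry+ cells were collected at 72 h from MUTYH knockout HEK-293 cells bearing lentiviral MUTYH cDNA NNN codon-scan libraries in 10 pg/ml doxycycline, co-transfected with an 8OG:A GFP repair reporter and mCherry. Tile amplicons were sequenced, and per-tile Rosace fitness scores were normalized to a repair function score anchored on synonymous and nonsense distributions. Synonymous medians were set to 0 and nonsense to -1, with variants under 300 counts per million at the start removed.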
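Also: cells sorted at 72 h after reporter transfection.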

8OG:A repair function score: each site, then its substitutions
G475: I -0.00703 | F -0.00573 | T -0.0403 | M -0.126 | R 0.00413 | H -0.0609 | C 0.00154 | Q -0.00214 | W -0.0871 | L 0.0136 | S -0.016 | V -0.0131 | A 0.000317 | N 0.0259 | K 0.0247 | D -0.00652 | E -0.00575 | P -0.00826 | Y -0.00721
Y469: N -0.738 | C -0.193 | K -0.326 | S -0.115 | G -0.451 | Q -0.317 | W 0.00845 | M -0.259 | T -0.181 | E -0.89 | F -0.0628 | V -0.153 | I -0.259 | D -0.955 | R -0.195 | H -0.0773 | A -0.0759 | L -0.314 | P -0.718
G471: K 0.0191 | D 0.0172 | W -0.0505 | L -0.0292 | S 0.0169 | Q 0.00928 | P -0.0663 | T -0.0359 | Y 0.0198 | R 0.00545 | N 0.00878 | C -0.0198 | M 0.011 | F -0.0055 | V 0.00448 | E -0.0561 | A 0.0172 | I -0.00761 | H 0.00339
G479: P 0.0129 | S 0.00355 | D 0.0194 | W -0.0628 | M -0.0116 | C -0.0498 | Q 0.0264 | L 0.00935 | F -0.00391 | V 0.00419 | I -0.00859 | E 0.0225 | T -0.0258 | Y 0.025 | R -0.0309 | H 0.0228 | K 0.00166 | N -0.00734 | A 0.00119
Q470: C -0.00083 | P -0.426 | W -0.0772 | M -0.0791 | A -0.0419 | S -0.00501 | D -0.0832 | L 0.00494 | K 0.0155 | T -0.0526 | G -0.105 | I 0.00254 | Y -0.0671 | F -0.0175 | N 0.0117 | E -0.000322 | R -0.00198 | V -0.00474 | H -0.029
Q473: A -0.00985 | F 0.00513 | T -0.00244 | I -0.0484 | P -0.0268 | H 0.0203 | L -0.0116 | G 0.0222 | K -0.0281 | V 0.00634 | R 0.00304 | E -0.021 | M 0.0265 | C 6.68e-05 | S 0.00408 | W 0.0181 | N 0.0155 | D -0.0165 | Y -0.023
P474: T 0.0285 | N -0.0807 | I -0.014 | G -0.00334 | K -0.0164 | E 0.0263 | L 0.0136 | C -0.00224 | H 0.0269 | V 0.00398 | M 0.0118 | F 0.0108 | S -0.00281 | W -0.0167 | A -0.0123 | Q 0.0183 | Y -0.0117 | D 0.00257 | R 0.00458
C477: K 0.00687 | S -0.00994 | N 0.0283 | R 0.000623 | G -0.00235 | L 0.0205 | V -0.0256 | D 0.016 | Y -0.016 | T 0.019 | H 0.0203 | F -0.0432 | M 0.00893 | P -0.00239 | I -0.0054 | E -0.0756 | W 0.00839 | A -0.00821 | Q 0.0117
V468: C -0.0116 | Y -0.025 | P -0.969 | E -0.259 | L -0.00361 | R -0.101 | D -0.647 | F -0.0236 | G -0.557 | T -0.0398 | I -0.0279 | N -0.262 | M -0.0306 | K -0.0375 | Q -0.0492 | A -0.0846 | S -0.18 | W -0.204 | H -0.0347
F466: S -0.715 | M -0.0599 | A -0.4 | Y 0.00857 | Q -0.488 | E -0.52 | W -0.0618 | P -1.3 | V -0.443 | R -0.568 | D -0.872 | N -0.0913 | I -0.587 | T -0.725 | G -0.584 | K -0.729 | C -0.319 | L -0.0617 | H -0.355
R467: V -0.105 | H -0.0349 | Q -0.0758 | N -0.0631 | A 0.0232 | S -0.0606 | T -0.0575 | D -0.0155 | F -0.0681 | P -0.876 | E -0.144 | M -0.057 | L -0.0425 | I -0.0576 | W -0.034 | G -0.0609 | C -0.137 | K -0.0257 | Y -0.0417
Q472: F 0.018 | E -0.00354 | C -0.0129 | Y 0.00647 | S 0.0274 | A 0.0214 | K -0.009 | H -0.152 | R 0.0222 | D 0.0112 | N 0.0284 | T -0.00129 | G -0.000609 | W 0.027 | M -0.0129 | P 0.0113 | L 0.022 | I 0.0116 | V 0.00907
T476: S 0.00281 | A -0.0442 | Y -0.0187 | H -0.0339 | K 0.024 | N -0.0111 | I -0.074 | E 0.0105 | Q -0.0039 | R -0.0215 | W -0.159 | C -0.0603 | D 0.00347 | M -0.0533 | G -0.0416 | F 0.0194 | V -0.0294 | P -0.0234 | L -0.0267
K481: F 0.0166 | P 0.00979 | H -0.0426 | Q -0.00252 | N -2.28e-05 | R 0.0229 | S -0.00188 | M -0.00967 | I 0.000486 | A -0.00494 | D 0.016 | E -0.00514 | G -0.0136 | V -0.0202 | W -0.0431 | C 0.0191 | T -0.0524 | L -0.0084 | Y -0.0542
R482: K 0.021 | M -0.00466 | V 0.00231 | Q 0.0234 | W 0.0248 | Y 0.0178 | P 0.0273 | I -0.00811 | H -0.0234 | F 0.0283 | G 0.0105 | D -0.000963 | T -0.0344 | S 0.0216 | E 0.00949 | C 0.0254 | L 0.00831 | N -0.0127 | A 0.0234
M478: E 0.0141 | I -0.0519 | L -0.0153 | F 0.0278 | N -0.0119 | P -0.0126 | Y 0.0167 | C 0.0262 | K 0.00017 | R -0.0213 | W 0.0205 | G 0.0207 | T -0.0383 | Q 0.0193 | V -0.00439 | S -0.00625 | A -0.0431 | D -0.0222 | H -0.119
S480: P -0.000393 | E -0.00292 | G 0.00341 | H 0.0192 | A 0.0216 | V 0.00525 | N 0.0064 | Q -0.00583 | Y -0.0114 | C -0.0352 | D 0.0166 | W 0.022 | L -0.0111 | K 0.0154 | T 0.0286 | M 0.0231 | F -0.0271 | I -0.0226 | R 0.00162
V465: R -1.13 | S -0.646 | T -0.191 | Y -1.23 | K -1.19 | Q -1.17 | M -0.396 | N -0.54 | P -1.18 | W -1.07 | L -0.379
